Results from patent US20090010987A1, “Methods and Devices for Reducing Tissue Damage After Ischemic Injury” (Conor Medsystems, Inc., priority 2005, published 2009).

Experiment: Retention of insulin bioactivity when delivered in PLGA
Assay type: physicochemical
Conditions: delivered in poly(lactide-co-glycolide) (PLGA)
From the text: Protein or peptide drugs can be human, non-human, recombinant or synthetic and can be the full length native form or an active fragment thereof. Preferably the insulin is a stable, short acting form which is resistant to radiation. Insulin in its crystalline form may be used for improved resistance to radiation. When the insulin is combined with a polymer, an agent may be added to preserve bioactivity. […] For substantially longer administration periods, a buffering agent such as hydroxyapatite may be used to maintain the pH as the polymer degrades to release acidic byproducts.

**Q.** With “Insulin: hormone which improves glycolic metabolism and ATP production; anti-ischemic agent” as the substance, how does the “period over which bioactivity is retained” value read?
**A.** Its value is “at least 24 hours”.
